Assay results: patent US20200172620A1 (Genentech, published 2020)

Tests used:
[1] = target: T1, human CD8 (as used in SPR) (human, UniProt P01732 22-182); assay: SPR (Fab, by paragraph 255)
T1 construct: also called huCD8

[2] = target: T2, cynomolgous CD8 (as used in SPR) (cynomolgous monkey); assay: SPR (Fab, by paragraph 255)
T2 construct: also called cyno CD8

[3] = target: T2, cynomolgous CD8 (as used in SPR); assay: SPR, Fab
[4] = target: T1, human CD8 (as used in SPR); assay: SPR
[5] = target: T3, human CD8 on cells (FACS) (human, UniProt P01732 22-235); assay: FACS
T3 construct: whole, on cells
T3 sequence (P01732 22-235): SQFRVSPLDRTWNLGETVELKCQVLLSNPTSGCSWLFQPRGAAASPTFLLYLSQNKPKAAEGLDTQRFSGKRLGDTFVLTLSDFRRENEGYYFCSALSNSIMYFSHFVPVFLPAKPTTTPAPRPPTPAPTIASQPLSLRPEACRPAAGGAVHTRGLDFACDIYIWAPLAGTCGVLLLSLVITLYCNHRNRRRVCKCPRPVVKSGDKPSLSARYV

[6] = target: T4, rhesus CD8 on cells (FACS) (rhesus monkey, UniProt P01732 23-235 (human entry)); assay: FACS
T4 construct: also called rhesus monkey CD8
T4 sequence (P01732 other isoform, or with tags, fused parts or gaps limits assumed): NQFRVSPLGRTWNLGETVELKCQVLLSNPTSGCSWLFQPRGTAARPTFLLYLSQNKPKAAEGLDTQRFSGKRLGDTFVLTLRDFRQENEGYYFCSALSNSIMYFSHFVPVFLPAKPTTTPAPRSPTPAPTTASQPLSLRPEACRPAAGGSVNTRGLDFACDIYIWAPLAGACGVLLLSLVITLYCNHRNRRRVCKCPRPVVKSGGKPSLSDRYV

[7] = target: T5, cynomolgous CD8 on cells (FACS) (cynomolgous monkey); assay: FACS
T5 construct: whole, on cells; also called cyno CD8

[8] = target: T2, cynomolgous CD8 (as used in SPR); assay: SPR
[9] = target: T1, human CD8 (as used in SPR); assay: SPR, Fab
[10] = target: T6, mouse CD8 on CD8+ cells isolated from mouse blood (mouse, UniProt P01731 28-247); assay: FACS with CD8+ cells isolated from mouse blood
T6 construct: whole, on cells
T6 sequence (P01731 28-247): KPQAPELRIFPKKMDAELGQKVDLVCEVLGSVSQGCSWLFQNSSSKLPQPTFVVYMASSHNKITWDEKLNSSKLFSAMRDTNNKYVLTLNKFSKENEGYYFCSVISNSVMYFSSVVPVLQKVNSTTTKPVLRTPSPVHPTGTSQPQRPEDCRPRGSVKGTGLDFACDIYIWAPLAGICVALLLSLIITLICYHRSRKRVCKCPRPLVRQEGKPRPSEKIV

[11] = target: T3, human CD8 on cells (FACS); assay: FACS titration on cells carrying human CD8 (legend paragraph 23: CHO cells expressing recombinant human CD8; text paragraph 256: PBMCs)
[12] = target: T7, rat CD8 on CD8+ cells isolated from rat blood (rat, UniProt P07725 27-236); assay: FACS with CD8+ cells isolated from rat blood
T7 construct: whole, on cells
T7 sequence (looked up): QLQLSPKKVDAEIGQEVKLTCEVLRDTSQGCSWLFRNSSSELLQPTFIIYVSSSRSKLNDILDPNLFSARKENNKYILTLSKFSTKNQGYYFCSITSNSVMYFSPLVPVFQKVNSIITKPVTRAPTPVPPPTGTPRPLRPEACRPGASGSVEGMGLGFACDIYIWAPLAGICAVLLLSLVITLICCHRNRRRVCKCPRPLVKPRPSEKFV

T1 sequence (P01732 22-182): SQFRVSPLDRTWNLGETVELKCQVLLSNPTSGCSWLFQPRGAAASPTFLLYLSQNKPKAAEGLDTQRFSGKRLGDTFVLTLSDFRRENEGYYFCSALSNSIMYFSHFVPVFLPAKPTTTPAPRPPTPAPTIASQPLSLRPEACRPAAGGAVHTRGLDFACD

B1: huOKT8.v9 (Fab, V domains shown)
VH: EVQLVQSGAEVKKPGASVKVSCKASGFNIKDTYIHWVRQAPGQGLEWIGRIDPANDNTLYASKFQGRATITADTSTSTAYLELSSLRSEDTAVYYCGRGYGYYVFDHWGQGTLVTVSS
VL: DVQITQSPSSLSASVGDRVTITCRTSRSISQYLAWYQEKPGKTNKLLIYSGSTLQSGIPSRFSGSGSGTDFTLTISSLQPEDFATYYCQQHNEFPVTFGQGTKVEIKR
notes: also called OKT.v9 Fab
Kd [1]: 0.3 nM
Kd [2]: 103 nM
fold improvement in binding compared to huOKT8.v1 [3]: 50 fold
Ratio of KD huOKT8.v1/KD variant for binding to huCD8 [4]: 37 X
Kd [5]: 2 nM
Kd [6]: 121 nM
Kd [7]: 44 nM

B2: huOKT8.v1 (antibody, V domains shown)
VH: EVQLVQSGAEVKKPGASVKVSCKASGFNIKDTYIHWVRQAPGQGLEWIGRIDPANDNTLYASKFQGRATITADTSTSTAYLELSSLRSEDTAVYYCGRGYGYYVFDHWGQGTLVTVSS
VL: DVQITQSPSSLSASVGDRVTITCRTSRSISQYLAWYQEKPGKTNKLLIYSGSTLQSGIPSRFSGSGSGTDFTLTISSLQPEDFATYYCQQHNENPLTFGQGTKVEIK
Kd [8]: 5250 nM

B3: huOKT8.v10 (antibody, V domains shown)
VH: EVQLVQSGAEVKKPGASVKVSCKASGFNIKDTYIHWVRQAPGQGLEWIGRIDPANDNTLYASKFQGRATITADTSTSTAYLELSSLRSEDTAVYYCGRGYGYYVFDHWGQGTLVTVSS
VL: DVQITQSPSSLSASVGDRVTITCRTSRSISQYLAWYQEKPGKTNKLLIYSGSTLQSGIPSRFSGSGSGTDFTLTISSLQPEDFATYYCQQHNEFPPTFGQGTKVEIKR
notes: The entries as printed are a Fab heavy chain and a whole kappa light chain
Ratio of KD huOKT8.v1/KD variant for binding to huCD8 [4]: 18 X

B4: huOKT8.v15 (antibody, V domains shown)
VH: EVQLVQSGAEVKKPGASVKVSCKASGFNIKDTYIHWVRQAPGQGLEWIGRIDPANDNTLYARKFQGRATITADTSTSTAYLELSSLRSEDTAVYYCTRGYGYYVFDTWGQGTLVTVSS
VL: DVQITQSPSSLSASVGDRVTITCRTSRSISQYLAWYQEKPGKTNKLLIYSGSTLQSGIPSRFSGSGSGTDFTLTISSLQPEDFATYYCQQVNEFPVTFGQGTKVEIKR
notes: as for B3
Ratio of KD huOKT8.v1/KD variant for binding to huCD8 [4]: 210 X

B5: huOKT8.v11 (Fab, V domains shown)
VH: EVQLVQSGAEVKKPGASVKVSCKASGFNIKDTYIHWVRQAPGQGLEWIGRIDPANDNTLYASKFQGRATITADTSTSTAYLELSSLRSEDTAVYYCGRGYGYYVFDHWGQGTLVTVSS
VL: DVQITQSPSSLSASVGDRVTITCRTSRSISQYLAWYQEKPGKTNKLLIYSGSTLQSGIPSRFSGSGSGTDFTLTISSLQPEDFATYYCQQVNEFPPTFGQGTKVEIKR
notes: also called OKT.v11 Fab
Kd [1]: 0.2 nM
Kd [2]: 23 nM
fold improvement in binding compared to huOKT8.v1 [9]: 55 fold
fold improvement in binding compared to huOKT8.v1 [3]: 230 fold
Ratio of KD huOKT8.v1/KD variant for binding to huCD8 [4]: 37 X
Kd [5]: 2 nM
Kd [6]: 20 nM
Kd [7]: 13 nM
binding result [10]: no binding
EC50 (read off the curve) [11]: ~0.8 µg/mL
binding result [12]: no binding

B6: huOKT8.v17 (antibody, V domains shown)
VH: EVQLVQSGAEVKKPGASVKVSCKASGFNIKDTYIHWVRQAPGQGLEWIGRIDPANDNTLYASKFQGRATITADTSTSTAYLELSSLRSEDTAVYYCGRGYGYYVFDHWGQGTLVTVSS
VL: DVQITQSPSSLSASVGDRVTITCRTSRSISKYLAWYQEKPGKTNKLLIYSGSTLQSGIPSRFSGSGSGTDFTLTISSLQPEDFATYYCQQVNEFPVTFGQGTKVEIKR
notes: as for B3
Ratio of KD huOKT8.v1/KD variant for binding to huCD8 [4]: 210 X

B7: huOKT8.v12 (antibody, V domains shown)
VH: EVQLVQSGAEVKKPGASVKVSCKASGFNIKDTYIHWVRQAPGQGLEWIGRIDPANDNTLYASKFQGRATITADTSTSTAYLELSSLRSEDTAVYYCGRGYGYYVFDHWGQGTLVTVSS
VL: DVQITQSPSSLSASVGDRVTITCRTSRSISQYLAWYQEKPGKTNKLLIYSGSTLQSGIPSRFSGSGSGTDFTLTISSLQPEDFATYYCQQVNEFPVTFGQGTKVEIK
Ratio of KD huOKT8.v1/KD variant for binding to huCD8 [4]: 73 X
